The values that follow come from the DeepSol protein solubility set.

A short description of the series: soluble on expression in E. coli; label from the status in PepcDB or PDB records.
With “MSLKKIGVLGMGYVGIPAAVLFADAPCFEKVLGFQRNSKSSGYKIEMLNRGESPLKGEEPGLEELIGKVVKAGKFECTPDFSRISELDAVTLAIQTPFANPKDLEPDFSALIDGIRNVGKYLKPGMLVVLESTITPGTTEGMAKQILEEESGLKAGEDFALAHAPERVMVGRLLKNIREHDRIVGGIDEASTKRAVELYSPVLTVGQVIPMSATAAEVTKTAENTFRDLQIAAINQLALYCEAMGINVYDVRTGVDSLKGEGITRAVLWPGAGVGGHCLTKDTYHLERGVKIGRGELDYPEGADSIYVLARKVNDFMPAHMYNLTVAALERLGKKMDGSKVAMLGWAFIKDSDDARNTPSEPYRDLCLKAGASVMVHDPYVVNYPGVEISDNLEEVVRNADAIVVLAGHSAYSSLKADWAKKVSAKANPVIIDGRNVIEPDEFIGKGFVYKGIGRGDKNSHKIKEGHHHHHH”, the “soluble on expression in E. coli” value was “soluble”. In the case of “MGSDKIHHHHHHIEAQIKEDLDLIRNGTSLLSLIPNFGMEAVTPWLDEFERGLMYELDFKREIKNIAFFRDMYRDRDDVKIPRPYSRLSTEDVIVMDYTPSVPIVRPFKAERLINMFLEQLLYEGVIHGDLHTGNIGLDSKTGSLVLYDFGNIINITSQYKTAIRDFVYGVQTGNVDAVMDNMVKMGMNVRDREVTRIFVKQYFDYLQTLDLTSFTINSPEIREKASKVPVELDSTTLTILRTYSLLEGLAKELDPSFSYARIINKNVELLFLDLEYIMYRIQKDTSS” it was “not soluble”; in that of “MLTIARRFSGSSICRKQITVGSNNIQVIKNIQDREYEAIWKTIGSTRSDLKKDDIKKFKEAWGNDYHQTLTFLKDSDRLIASNSHVVFRPLKDSKGLENLVFRGNLWISPDVRGSEIMDITDKQSYDVGFSVGNNSMAYATKKTMDQYKNLTGSMDHLHKYYVSNYDFGDLCIPKDLDTSGIVVKNARDVPDTDILKYDAKVFKYERSKYVLGQIREDFGRVAYNEKGDVIGIGAISVYPSGECAITPMYADDIRIARTILKNILEEMTLDAEKYWRLQIRSHDQHTGSYGWIRPFLSTMTHRSEVCTLMCDHKEKGMDFSKVYSTFHADNCPI”, “not soluble”; in that of “MELTFNQAAKGVNKEFTVNIMDTCERCNGKGNEPGTKVQHCHYCGGSGMETINTGPFVMRSTCRRCGGRGSIIISPCVVCRGAGQAKQKKR”, “soluble”. The same measure for “MKFETINQESIAKLMEIFYEKVRKDKDLGPIFNNAIGTSDEEWKEHKAKIGNFWAGMLLGEGDYNGQPLKKHLDLPPFPQEFFEIWLKLFEESLNIVYNEEMKNVILQRAQMIASHFQNMLYKYGGH”: “soluble”.

In the case of “MTATLSWIDEITMTELERNPYPVYERLRAEAPLAYVPVLGSFVATTADLCRTIANSPDFEGIITKAGGRTFGHPAVIGVNGEIHRDLRSMVDPALQPSEVDRWVDGLVRPIARRYVEQFENDGKADLVSQYCEPVSVRALGDLLGLNEVSSDTLRDWFHRLSNSFTNAGVDADGEFTNPEGFVQGDEAKAEIRAVVDPLIDKWTVHPDDSAISHWLHDGMPEGQVRDREYIYPTLFVYLLGAMQEPGHGMASTLVGLFTRPEQLEAVIDEPALIPRAISEGMRWTSPIWSATARISTKDVTLGDVFLPEGSVVLLSYGSANHDTAVYDAPSDYDMTRPPLPHLAFGSGNHACAGIYFANHVCRIGLEELFEAIPNLERDSGADVEFWGWGFRGPTALRATWEV”, the “soluble on expression in E. coli” value is recorded as “not soluble”.

Regarding “NFDTNMFKLENYVKEKYSLESLEIIPNEFDDTPTILSERISQVAAGVLRNLIDDNMKIGFSWGKSLSNLVDLIHSKSVRNVHFYPLAGGPSHIHAKYHVNTLIYEMSRKFHGECTFMNATIVQENKLLADGILQSRYFENLKNSWKDLDIAVVGIGDFSNKGKHQWLDMLTEDDFKELTKVKTVGEICCRFFDSKGKEVYENLQERTIAISLEDLKNIPQSLAVAYGDTKVSSILSVLRANLVNHLITDKNTILKVLEEDGDL”, the “soluble on expression in E. coli” value is given as “soluble”.

As to “MTPNGHHFRTVIYNAAAVGNLQRIKVFTINSRNDRQWIIDCFNSDQDGRYPLVIAARNGHANVVEYLLEIGADPSVRGVVEFDNENIQGTPPLWAASAAGHIEIVKLLIEKANADVNQATNTRSTPLRGACYDGHLDIVKYLLEKGADPHIPNRHGHTCLMIASYRNKVGIVEELLKTGIDVNKKTERGNTALHDAAESGNVEVVKILLKHGSVLMKDIQGVDPLMGAALSGFLDVLNVLADQMPSGIHKRDALKLLGSTLLDKKMDAMSAMNCWKQSMEVPLHADDLRLVREMETFFEPQEVYEYQREAQNIAQVELLDGNIEAQRMQALVIRERILGGAHTDVHYYLRFRGAVYCDMGQMNRCYDLWKHALELQQKHFAPLYYGTITTLQSFHETFSMSLNDFVNNHHANRNLRVRSSWVKYVFNGVCLELERAAAWTGAPLLEDTECCGKERCQHATEESEYKKLVYVAVHLVNVLERLSLPSAHIDDSDEEKEPKADVRRLMIVCHELHIPLLHHTLEERIPDSNSAELGLPKAAVLEQLLELDLDVNATDKNNDTPMHILLRAREFRKSLVRALLVRGTWLFARNRHGDVVLNVMKRMKALNHANFDDLPLGRHITLAGLVANAMRVKYPKKFVGVEEQMPLELRRFYLAH”, the “soluble on expression in E. coli” value was “not soluble”. In the case of “MGDYENVLMVKPKVFVYRIPPIGTSGHKAADWNLDSPAWTGRMRLVAIGKRLEMRLEDGETCDLYAKCPIDAHPGNAIEAVSDSSRYFVIRLQNDNGQQAFVGCGFQERGDAFDFNVTLQDHFRYIERSAELEKQDLSAGPSLDLAFKEGQTISINIGKKDKSAVSRPRPAPGASTGGLVPLLPPPPGAGSMIRNSRPSTTTTTASSSLSSAFAAPPPAPSSSTSTTATSGNLLDF”, the “soluble on expression in E. coli” value was “not soluble”. In the case of “MGSDKIHHHHHHMSYYLRSASLTNYVEVARAVGLDPHQFLRAAKISRDVLLDPDIRIPAKKVGRLLDDSARAAHVDDFGLRMAELRQVSNLGPLAFVVREQPTLRRALESMVRYMGVQNEALAMRMEESEGLLMIRLHILNDQPGTLRQATDLAVGVVYRLLSVCLGASWRPRSICFTHAAPASQATFQRVFGMPCVFNQDFDGIVCVAADLEAPLPSYDPVMAHQVKRYLGTLLAQANTTLPDKVRELVHVLLPSGMCSVDRVAQHLGVDRRTVHRRLAQENTSYSDIVNAARASLVVRYIDNRERPLSEVATLLGFSSLSAFSRWFGGQFGCSVSKWRLQHEGQGRNTA” it was “not soluble”; in that of “MKRLLVFLPLLLLACAPKPEAEAPQTTAPLRVQVRTLKAEPGLLTREARASANVVAEKESLVAAGASGRVVRTLPAGTRVRAGEGVVFLDPAPFQEALAQAKLALRQAEENLARAEAQTEGNRKALEAQLAAAEAQLAAAKRRYEEGKALLALGALAPLELKGLEAQYLQAQSAYENAKEALARLEREDDLRLLRLQVEAARLQVQQAERNLKESVVRAPFAGEVVEVYVKEGEFTGAGSRAFRLATTDRLLVKVYLPPERAAALTEDTAFRVRQNGKEVEARLQAKSDLPGQNRLVEVTLRPTGPLLPGAAEVRYPEVLAEGLLLPAGAVRTEDGEAFVYVVEEGRARKRPVRLLAQEGGRAAVAGLEAGEAVVYPVPEGLEDGDLVEVVP”, “soluble”. Turning to “MAYATVEDMVARFGELEVLQLTDRNNEGLIDREVAQTALVDATAEIDAYLGRFRRPFEDLPPILVRLCCDIARYRLTAAQGVLITDEIRNRYKIDVLDLLRAMAKGEVQLGVDDSGEEVAAGEDGIVFVNGKNKVFGRDH”, the “soluble on expression in E. coli” value is listed as “not soluble”.

In the case of “SLLASTRHIARGDTGNVSVRIRRVTTTRAGGVSAPPFDTFNLGDHVGDDPAAVAANRARLAAAIGLPGNRVVWMNQVHGDRVELVDQPRNTALDDTDGLVTATPRLALAVVTADCVPVLMADARAGIAAAVHAGRAGAQRGVVVRALEVMLSLGAQVRDISALLGPAVSGRNYEVPAAMADEVEAALPGSRTTTAAGTPGVDLRAGIACQLRDLGVESIDVDPRCTVADPTLFSHRRDAPTGRFASLVWME”, the “soluble on expression in E. coli” value is on record as “not soluble”. As for “MGSDKIHHHHHHMHFVMIFLDGFGLGGDRDNPIMAAHTPYIDELLGGHYLWGQERRIESEQLILIPLDASLDVTGIPQSATGQTTLWTGVNGAKALGFHLNAYPNEKLAEIIKEKSIFKQLADQGKKVTFANTFTSHYDEMIASGKRRHTASTLSALAGGVPLRRIEDLLQGKGVYQDMTNEILRELEQEADIPLITSYEAGKNLGRLALDYDFTLYEFFQTDVRGHKQDWEKAVALIEQIDGFIGGFMSVVRHEDVTWLLTSDHGNIEDFRVKGHTQNPVPALGWSSKPLEWPQWERLEDVTPGIVRMILGTREL”, the “soluble on expression in E. coli” value is “not soluble”. Turning to “MAHHHHHHMDWVKVMNLIYASRDVDATTLAFNAAMSAVEKKGCLKSMLEVFEIMKKKNIKPDLVSYKLLLRLCANYHLGEHAEILFDEMVETDKLTPTYEIYALMISCFAKVGDGHRAVEFVEKLRSDPLVGEVNNWGEAGGVSGSGSADDRQHPAWRDSFAEEATTEEGAEAEGSTYTNQFKEITKKIKHIERGSSKIQYSEYANVIFACNMSNLPEQGIKYFEELLNTGKYMPSTLLLESIFDLLAKNGNYEKCLDYYNKLKDDPNFKKAINVNILNNILKALSVQGKINIIEDLWKNEFDELMLTPNEISYGYMLKVYSIVDDYEKAFKLFKEMQMKKMLSNKNIIPFVYTINAFKNCGIYNYAIYVLRVAKLLGVSSEDLLKLYNDAMVACVNAKKYDVVISLYAELITMQEKGAPSLEISISTLGFVLLAFRELDMREDFTNLKNLIIQKNYKLTPLCGQLVSEQPH”, the “soluble on expression in E. coli” value was “not soluble”.

In the case of “MSTNLNIEVSINLTEIDVNAQLAEFARFQQVRDDSRYAQDVEREFVLGPIRHHRRQLEPSRSAPLASTEQPVAQATTHPSTENARVPALVLRSGSWRALPVAQGGSSHIRIWPVSRSATTTSTATRHPPFTNTSASTSFAPYQRHRGSALQTSECTICFEKPVDPRGCPKCLKVIGCKKCVKKWFDTSASKACPLCRFEWKLHRDNPDVVKISTLEVLKRQKQNRP”, the “soluble on expression in E. coli” value was “not soluble”. On to “MNKKNKFFDIYLELEQDITSGVYPAGTLLPSENVLAKRFSVSRETIRKALVLLLENGCIQKLQGKGSIVIDRERYSFPVSGLTSFKELQKSEQMNATTEVIRNEETTLPDRIADFAGLPHGSNCLAILRVRYLEGEATILDYDYLLDKTEPIANEILEDSLYQYLENEKGYEISYAQKEITVEPLNAEDKKYLALHGDTHVVVVKSTVFLKDTTLFQYTESRHRLDKFRFIDFARRR”, for which the “soluble on expression in E. coli” value is “not soluble”.

For the sequence “MGSDKIHHHHHHMQHHKVAIIGAGAAGIGMAITLKDFGITDVIILEKGTVGHSFKHWPKSTRTITPSFTSNGFGMPDMNAISMDTSPAFTFNEEHISGETYAEYLQVVANHYELNIFENTVVTNISADDAYYTIATTTETYHADYIFVATGDYNFPKKPFKYGIHYSEIEDFDNFNKGQYVVIGGNESGFDAAYQLAKNGSDIALYTSTTGLNDPDADPSVRLSPYTRQRLGNVIKQGARIEMNVHYTVKDIDFNNGQYHISFDSGQSVHTPHEPILATGFDATKNPIVQQLFVTTNQDIKLTTHDESTRYPNIFMIGATVENDNAKLCYIYKFRARFAVLAHLLTQREGLPAKQEVIENYQKNQMYLDDYSCCEVSCTC”, the “soluble on expression in E. coli” value was “not soluble”.

As to “MGSDKIHHHHHHMIFKEFGNKNMPTIVFLHGGGLSFWSFKEELSALKNSYRIVTPIIDGHGEDYNNTFISISNSAKHVINYIQESCNGHVFCICGLSLGAQILVEVLSLKHNISEYAVIESALVYPIKLSLNLMVAMNSLAYGLIKKKWFAKLQAKTLNVPQELFETYYKESSKMTKETLINITKSNGSYPMPNSICNTTASTLILVGERELSIMKKSAKLLNETIDNSILNIIPKAKHGEISLAYPKQYLDLLNKLFNSKK”, the “soluble on expression in E. coli” value is listed as “not soluble”. Turning to “MRARIYQPARNAMTSGMAKTRKWVLEYAPGSAREVDPLMGWTSSSDTQSQVRLRFDSKEEALDYARAHGIDAVVTEPHKRKPNLRARGYGENFATDRRGPWTH”, the “soluble on expression in E. coli” value is on record as “soluble”.
